Measured values published in US6887705B1, “Tyrosine phosphorylated cleavage furrow-associated proteins (PSTPIPs)” (Genentech, Inc., priority 1997, dated 2005).
Where a chain is given by its changes, count along the chain named.

How the values were obtained:
Test in all cases: in vitro translated PTP HSCF mutant precipitated with 1 or 10 µg/ml GST PST PIP
[1] = target: T1, PTP HSCF with R444 mutated to alanine, HA tagged (UniProt Q61152 1-453)
T1 construct: range 1-453; also called HSCF R444
T1 sequence (looked up): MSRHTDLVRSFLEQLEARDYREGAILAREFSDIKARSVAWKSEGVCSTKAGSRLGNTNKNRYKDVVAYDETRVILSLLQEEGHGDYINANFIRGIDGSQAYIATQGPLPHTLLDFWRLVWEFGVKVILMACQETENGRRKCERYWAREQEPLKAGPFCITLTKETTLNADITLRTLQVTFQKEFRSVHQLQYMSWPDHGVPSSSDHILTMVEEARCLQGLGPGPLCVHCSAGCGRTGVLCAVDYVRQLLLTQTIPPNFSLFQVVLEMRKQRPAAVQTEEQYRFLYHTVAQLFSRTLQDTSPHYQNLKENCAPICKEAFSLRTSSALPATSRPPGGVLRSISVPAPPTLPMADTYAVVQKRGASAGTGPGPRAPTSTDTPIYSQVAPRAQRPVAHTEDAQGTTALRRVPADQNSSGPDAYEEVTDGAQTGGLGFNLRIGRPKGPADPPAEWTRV
Description: (§1) Multiple bands precipitated with the GST PST PIP fusion protein are apparently C-terminal proteolyzed products of the PTP. Also shown are GST PST PIP precipitations (10 μg/ml) performed on a double mutant of PTP HSCF (R+W) with both residues $R444$ and $W450$ mutated to alanine (bottom panel FIG. 14 A/2). B. COS cells were co-transfected with a 10:1 ratio of plasmids encoding hemagglutinin (HA) tagged PTP HSCF with the illustrated alanine substitutions or a mutant of PTP HSCF deleted for the C-terminal 24 amino acids (PTP $HSCFD24$) and wild type PST PIP with a C-terminal FLAG epitope tag, respectively. Transfected cell lysates were immunoprecipitated with anti-HA monoclonal antibodies and the precipitates were blotted with anti-PST PIP polyclonal antibody to detect the relative amounts of PST PIP complexed with either wild type or different mutant forms of PTP HSCF. Lysates were also immunoprecipitated with anti-HA antibody and blotted with the same antibody to insure equal expression of PTP HSCF. Equal expression of PSTPIP was determined by immunoprecipitating lysates with anti-FLAG monoclonal antibody and blotting with anti-PST PIP polyclonal antibody.
(§2) In vitro binding analyses between various PTP HSCF and PST PIP constructs were performed as previously described (Spencer et al, (1997), supra). Briefly, plasmids were transcribed and translated in vitro using the TnT Rabbit Reticulocyte Lysate System (Promega). Samples were diluted in 50 mM HEPES, pH 7.2, 1% triton X-100, 10% glycerol, 100 mM NaCl, and 2 µg/ml each of leupeptin, pepstatin, aprotinin and PMSF (lysis buffer). Samples were than reacted with GST fusion proteins at various concentrations, and the bound proteins were centrifuged using glutathione-sepharose beads and analyzed on SDS polyacrylamide gels. C-terminally-derived peptide inhibition studies were performed by incubating the GST fusion protein binding reactions in the presence of 10 µg/ml of the indicated peptides. Peptides were produced by FMOC-protected amino acids as previously described (Spencer et al, (1997), supra). In vivo interactions between various forms of PTP HSCF and PST PIP were also performed as previously described (Spencer et al, (1997), supra).

[2] = target: T2, PTP HSCF with G442 mutated to alanine, HA tagged (UniProt Q61152 1-453)
T2 construct: range 1-453; also called HSCF G442
T2 sequence (looked up): T1 sequence (looked up) with G442A, A444R
Description: as §1, §2

[3] = target: T3, PTP HSCF with P447 mutated to alanine, HA tagged (UniProt Q61152 1-453)
T3 construct: range 1-453; also called HSCF P447
T3 sequence (looked up): T1 sequence (looked up) with A444R, P447A
Description: as §1, §2

binding result [1]: binds
binding result [2]: binds
binding result [3]: binds
B1: GST-PSTPIP (GST fusion of full-length PSTPIP, amino acids 2-415) (other)
chain: MAQLQFRDAFWCRDFTAHTGYEVLLQRLLDGRKMCKDVEELLRQRAQAEERYGKELVQIARKAGGQTEMNSLRTSFDSLKQQTENVGSAHIQLALALREELRSLEEFRERQKEQRKKYEAIMDRVQKSKLSLYKKTMESKKAYDQKCRDADDAEQAFERVSANGHQKQVEKSQNKAKQCKESATEAERVYRQNIEQLERARTEWEQEHRTTCEAFQLQEFDRLTILRNALWVHCNQLSMQCVKDDELYEEVRLTLEGCDVEGDINGFIQSKSTGREPPAPVPYQNYYDREVTPLIGSPSIQPSCGVIKRFSGLLHGSPKTTPSAPAASTETLTPTPERNELVYASIEVQATQGNLNSSAQDYRALYDYTAQNSDELDISAGDILAVILEGEDGWWTVERNGQRGFVPGSYLEKL
notes: Made in DH5-alpha bacteria from pGEX4T-2; also called GST-full-length PSTPIP; GST PTP PIP; not shown: glutathione S-transferase encoded by pGEX-4T-2 (Pharmacia)
